The values below come from article PMC6448818, “A novel evolutionary conserved mechanism of RNA stability regulates synexpression of primordial germ cell-specific genes prior to the sex-determination stage in medaka”.

The target of data set [1] is T1, Ol-bsf (Ol-lrpprc, Bicoid Stability Factor) (Oryzias latipes, UniProt H2LIH1 1-1438).
T1 sequence: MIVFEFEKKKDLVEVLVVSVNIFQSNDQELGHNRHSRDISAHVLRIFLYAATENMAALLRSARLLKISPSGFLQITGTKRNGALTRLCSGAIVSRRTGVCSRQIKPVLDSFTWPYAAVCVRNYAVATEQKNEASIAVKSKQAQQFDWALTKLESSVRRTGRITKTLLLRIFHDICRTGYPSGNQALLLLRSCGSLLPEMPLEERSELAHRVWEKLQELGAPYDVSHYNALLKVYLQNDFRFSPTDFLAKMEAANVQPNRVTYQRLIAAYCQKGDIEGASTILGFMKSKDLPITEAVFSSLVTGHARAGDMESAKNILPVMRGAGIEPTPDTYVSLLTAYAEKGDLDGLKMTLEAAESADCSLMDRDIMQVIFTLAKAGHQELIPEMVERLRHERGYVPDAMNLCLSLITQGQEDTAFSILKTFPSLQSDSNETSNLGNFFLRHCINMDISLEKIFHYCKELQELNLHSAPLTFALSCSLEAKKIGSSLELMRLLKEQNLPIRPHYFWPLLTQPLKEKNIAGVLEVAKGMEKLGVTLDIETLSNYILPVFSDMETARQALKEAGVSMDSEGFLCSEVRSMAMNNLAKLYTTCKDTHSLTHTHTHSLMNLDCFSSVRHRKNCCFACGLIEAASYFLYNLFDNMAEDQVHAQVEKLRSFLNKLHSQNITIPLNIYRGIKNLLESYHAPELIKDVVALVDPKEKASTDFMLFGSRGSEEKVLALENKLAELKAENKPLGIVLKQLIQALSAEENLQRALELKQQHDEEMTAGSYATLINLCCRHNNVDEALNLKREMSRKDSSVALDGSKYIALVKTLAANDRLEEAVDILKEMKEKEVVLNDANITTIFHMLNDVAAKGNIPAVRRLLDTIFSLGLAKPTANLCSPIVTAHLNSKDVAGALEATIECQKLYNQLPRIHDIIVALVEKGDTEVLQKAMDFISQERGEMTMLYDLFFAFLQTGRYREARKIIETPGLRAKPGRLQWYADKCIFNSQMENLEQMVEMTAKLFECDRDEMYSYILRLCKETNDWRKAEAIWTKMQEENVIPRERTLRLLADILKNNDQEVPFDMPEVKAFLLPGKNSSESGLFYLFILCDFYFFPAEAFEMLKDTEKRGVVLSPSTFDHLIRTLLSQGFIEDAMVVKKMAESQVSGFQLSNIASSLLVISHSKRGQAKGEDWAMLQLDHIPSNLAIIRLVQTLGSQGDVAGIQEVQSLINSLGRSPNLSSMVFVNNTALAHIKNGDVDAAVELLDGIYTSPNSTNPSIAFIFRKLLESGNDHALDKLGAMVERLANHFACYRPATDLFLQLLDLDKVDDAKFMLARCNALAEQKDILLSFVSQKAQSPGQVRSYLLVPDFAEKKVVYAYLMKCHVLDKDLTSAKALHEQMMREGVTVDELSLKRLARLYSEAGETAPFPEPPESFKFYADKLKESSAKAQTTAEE
Nature of the data set: competition; vs labelled D3U-box, probe/competitor 1/5; EMSA: 10 mM Tris-HCl pH 7.9, 100 mM KCl, 10% glycerol, 5 mM MgCl2, 1 ug torula rRNA, 0.075% Triton X-100, 1 mM DTT, 1 ug BSA, 0.5 ng probe, 2 or 4 uL IVT mix in 20 uL, on ice 10 min; heparin (1/10 volume of 50 mg/mL) before loading; 5% native gel, 0.5x TBE. As to conditions: protein: ivt; tags: FLAG.

The target of data set [2] is T1, Ol-bsf (Ol-lrpprc, Bicoid Stability …). As to the kind of experiment: EMSA; self-competition 1/1 to 1/4 gave progressive loss of shift; EMSA: 10 mM Tris-HCl pH 7.9, 100 mM KCl, 10% glycerol, 5 mM MgCl2, 1 ug torula rRNA, 0.075% Triton X-100, 1 mM DTT, 1 ug BSA, 0.5 ng probe, 2 or 4 uL IVT mix in 20 uL, on ice 10 min; heparin (1/10 volume of 50 mg/mL) before loading; 5% native gel, 0.5x TBE. The settings on record: protein: ivt; tags: FLAG; label: 5'-32P when probe. In general terms: In EMSA bound probe runs differently from free probe, usually more slowly.

Take UGGUUCACGUUCUUCAAGACGCUCUGACUCU (ssRNA) [D3U-scrambled box (S-D3U-box)]: in data set [1], the binding result is “no binding”.

With UGGUUCACGUCUGCUGCAGGUCUCUGACUCU (ssRNA) [native medaka D3U-box], the binding result in data set [2] is reported as “binds”.
